Tests used:
Type in all cases: biochemical, Quillaja saponaria
[1] = Experiment 6-1: screening of rhamnosidases for derhamnosylation of saponins in treated bark extract (2%), desglucosyl-QS-17 2134 to QS-21 1988 (PAR %); conditions: TBE 2%, pH 7.5, 30 degC, 18 h; TIC peak area ratio percent, LCMS/MS; negative controls 2.719, 2.158
[2] = Experiment 6-1: specificity of rhamnosidases towards other rhamnose residues (C3 saccharide rhamnose, C28 saccharide rhamnose); conditions: TBE 2%, pH 7.5, 30 degC, 18 h; LCMS/MS; negative controls 0.18, 0.17
[3] = Experiment 6-1: screening of rhamnosidases for derhamnosylation of saponins in treated bark extract (2%), QS-17 2296 to QS-18 2150 (PAR %); conditions: TBE 2%, pH 7.5, 30 degC, 18 h; TIC peak area ratio percent of rhamnosylated starting saponin to derhamnosylated product, LCMS/MS; negative controls 4.876, 5.225
[4] = Experiment 6-1: screening of rhamnosidases for derhamnosylation of saponins in treated bark extract (2%), QS-17 2310 to QS-18 2164 (PAR %); conditions: TBE 2%, pH 7.5, 30 degC, 18 h; TIC peak area ratio percent, LCMS/MS; negative controls 3.061, 2.429

| Molecule | Peak75 (PAR %) [1] [%] | ratio PP/QS-21 [2] | QS-17 (PAR %) [3] [%] | Peak57 (PAR %) [4] [%] |
| --- | --- | --- | --- | --- |
| 991 (protein, Spirosoma linguale) MKFARLNTLTVWLITSFITVSFTISEAISADLTPVNLRTEYKRNPVVDVDKPRLSWELTATGRGQIQTAYQILVASSAALLNAEKADLWQSAKVAGNATNQIEYSGKTLLSRTVCYWKVRSWDKNGQPGPWSAVATWEMGLLTKADWKADWIGNDLTALGKGKTYHLPPSPFFRKEIQLTAPVKKARLYVTSLGLYEYQINGKRIGNDYFTPGWTDYNKRVYYQTYDVTADVKPGKNALGAILADGWYAGYLGYALLVGNPVVKNFYGNVPLLKAQLEIEYTNGKTETIATDQSWKTSHGPILEADILNGETYNANLAFDNWSKTGFNDAGWKNSTIFPDKPDRQLEAYPGNPVRVFQELKAKTVTPKAGGHYLFDLGQNFAGMVRLRVKGNKGDTIRLRFGEVLFPNGDIMTENLRKARATDTYILKGDPQGETWTPKFTYHGFQYVDVAGFKSAPGLDAITGIVLTSATPETGSFETDNKLINKLYQNIVWTQRSNYVEVPTDCPQRDERLGWTGDAQAYVQSATFNNDISAFFTKWLVDLNDAQRPDNAYPIYAPAPNVRKTDTYSPGWSEAGIICPYTIYKTYGDTRVIQKFWPNMVAYLKFMEAKSQGTYVYKEGSFAEVSPKGGFGDWLSVGKKTPPDMLATLYFGYAASMMADMAKAIGKPDEATYYTTMFTKIKQAFRAHYTDETGRFKTNSAAYGNGEGYVDGEMGFEGHTQTAYANAIYMNMIAPDLTPKAGNWLVDLIKANDNKLSTGFLGVKPLLPSLSMTGHSNEAYKLLLSTEYPSWGFEVVNGANTIWERWNSYIKGKGFENNAGMNSFNHYAFGSVNEWLFGNAAGIKAAEAGYRTFIIRPELAPQGINFVNASYRSINGTIVSSWKKEGNRVRMKVVVPANTTATVFIPITKPDSVLESNKALTASQDIRVIGARDGYLQVTVGSGTYQFSAVN | 2.453 | 0.17 | 5.084 | 3.443 |
| 1043 (protein, listed as Flavobacterium johnsoniae) MKLSLKTFFYTMLLFSFFHAFSQEKLVSPWPESSNINQPWARWWWMGSAVDKPNLKRSLIDFHKAGIGGVEITPIYGVKGEENNFIDYLSPKWMEMLDYTIHVSDSLKMQVDMVLGTGWPYGGSHVTLPHAATKLIVEKYTVKKNETFDRDITVDSSKEKTPASLLYVVAYGNDGSFVNLTNELQNKKVNVKDKGLEGSNIKLPNKLEPNKLNWKAKKADYTIYAVFSGKTGQQVKRAAPGGKGYTLDHYSEEALKAYVIPFNEALKGREGKIRAVFNDSFEVYGTDFTPNFFEEFQKLRGYDLKKQLPVLLNETDNEIGNRIRSDYRQTISDLLLNKFDKFWTNWAHSKNFKTKLQAHGSPGNLIDLYASADIPECETFGSMPFDIPGFRRDKEDIREGDADPVMLKFSSSAAHISGKNLVSSETFTWLREHFKTALSQCKPEAEDLMLNGVNHIFLHGSTYSPDRAVWPGWQFYASVNFNSNNTIWEDAPALFSYISNCQSLLQQGKPDNEILLYWPIFDAWDKYEKGTLFYQFKIHSLSDWLYGTSFYDTTKNLMKKGYSVDFISDNFIAEAKVVNGNIVLPGGNFKSLVIPSCKKMPVETLQKLIELKKAGACILFEGLPESVPGFKDYKKQEQNLKNLLAENKIQAVSNIFTSLEDAKILPESLVNTGLKSIRRDINGEKIYYLVNHTAKTIDDFIPLQVENKEIILLDPLTHESGNAIVNKKDKITYVKIKIEPGQSYFLKTENTASQKKWNYFESASEPIALKGNWKLSFDKGGPKLPADAVVSNLESWTKLSPDAEAFSGSAAYTLQFENPNPKIENWSLNLGDVRESAKVWLNDEFIGTAWSVPYKLNIQKLKPGKNVLKIQVTNLPANRIRDMELKGQEWKIFHEINMVDKDYKKFDATKWIPMPSGLLGPVTLTALKQEN | 2.791 | 0.15 | 5.098 | 3.119 |
| 998 (protein, Rhodanobacter denitrificans) MLSIALAAALAAGAVAPDWHDGLDWHGVHVAISRDAQQGYTLAWPYGQRTIAAQPLATQTASPLFDGLFAMAQDDLKQDSVSAIRDGAFDHGQPIPCQCFETGLKWPYVWTRDLSYAIDLGLWRFDPARSRNGLKFKLSGVRVASAPQGPAPKRLYPMQDTGSGGSWPISTDRVVWFLGARHLLDDQAFADDVYRALDATLAQDRQYAFDAGFGLYRGETSFLDWREQSYPAWTADEVTFIAQSYALSTNVLHYQALQLAANLADTHHDAKAAAGYRADAAALKAAINAHFWRAERGMYMSYLSGDGTPYDSYDLLGIALAIDSGVAGGERAKQALANYPTWPAGSPVIWPERADQPIYHNRAIWPFVSAYALRAARLTEQPARIAHEIESVLRGAALYGSNMENYELLTQGQHVDEGKLSGPVVNSPRQLWSVAAALAVVTEGVFGLNEDGSVEPKLPTALVPMLFGQRRTITLDLHERQITLQLPEKISGNLLVADRTRTQGTATTVTLKAVQVPDAPLRTDAPLYAPLAPAAPVVQAAGNGWRVSAEGKVRLYLNGRAHGDIDGTATLPRQPGLTCFSATRVDAHGLESLHSPDTCVGETAKVNGSWPRRWTAPATGRYRVALDYANDHGPINTGITAAVKMLEVSCAGSDPQRLPIVMPHSVRAQRSTWGTFTAQAGSACRFALDDGFNMSYLAHFAHYTANNGSGGNGGSSGPLNQAEVHALLIAPLAADRGTP | 2.402 | 0.15 | 5.111 | 3.326 |
| 1058 (protein, listed as Cyclobacterium marinum) MKLTTYYFCLIAGLCSLFTFGLHAQESAIYKQMRQNFQQPPNTAKPTVYHWWLGGDVDTVRLKEEILSFDKAGIAGFTIFEIGSRDTVFVGAGPEFLGEASLETIKVAVEEAGKYGMEVGLNTASSWNAGGNWLTPKHAAKSIYQRKVNVSGGGKEKIKLPFPDIPEKDPRGRKRLISYGKDGKPVYSEEIAVLAIPLVGENAAIDTSLIKDVSIYFDANKEVLNWDVPEGDWKIVRYVSSNSGENLVLPSKYSAGPIVDHFDADATAFHFNYIIDRLESKLGDLRKTSLKNLYMASYEARGFNWTPTLPQEFQELNGYDIKKFLPILFGEVSLSQEATAAFRAGFQRTLSELMIKNFYMKSKEICNAHGLKNNSEAGGPGYPLHDVPVEPLKALGKGLDIPRGEFWINHHNFSEEGMDVLRVVKEVSSASNIYGVGMVEMEAFTTFQQWQEGPYEMKPMGDRAFAEGMNRVVVHGSTHNPKGTGNPGIVYHAGTHYNDKRVWWKKVRPFNDYLARISYVLQEADFQSDVLYYYGDTIPNYGGHKRSRFNPGEGYDFELLNTEILFGLEVKNGKIINPRNGAEFKVLALTKEHEINPKVLSKLEQMASSGAIITGPKPNRIAPERNMKELPNMNGWLDNLWKPFSKQSFKPGSKAIYYNVSVGEILKALELSPDFSYKGNGFYTLDYTHYQKGDMDFYFIVNTTGEWLSRDLIFRQEGKVPELWNPENGNISPIPIYKETEEGISLPLSLAPHESAFVVFKPGIKPVHFTKIAHGGIHPPKVRYSDQGIEFWEEGEFGLGHGEDTLILNNFPNVKSLEGAWEIYFPEGWGAPDKAIFPELKSWTESENEGIKYFSGTARYEKKFIHEMHASEYPEAKIYLDLGDLSHVAEVWLNDKPLGITWSKPYRFDVTEAIKPGINTLKIEVANTWSNRLTGDAITGKDYTQTHVNNTVIKGMPNFRVTWENAPLIPSGILGPVTLTTVLPIAMPK | 2.398 | 0.17 | 5.121 | 3.144 |
| 1011 (protein, listed as Paenibacillus sp.) MQSNTAVLLKGGDAVYMKVKGDTDNMAAKDWGDWSARWIWLQEEQGNADKDARHERVYFRRVFELPAGTGKAYSLNMAITGDSRYRLFVNGQRQWAGPCKGHEHVQYYEEFNLEGILQPGINVIAVTVVHYAGTAPFEMGEDGPLSVWRSEQGGLLVEAEITADGQLVQELPTDTSWKAIRDLSYRLRPFPMMRWMGGLEEAAGDTALRDWTLPEYDDSAWSAARIVQPVRDDYGQLTPWQLERRPVPLLYEQEQCFWKLMRSSCGEGKALFTAGHRLELRDGASSTVPSIAGPAAEGVLVQAGQQLWLELDAGELTTGYLQLKLQGGGGSLITLQYAECYEEETGDEEVRRKAVRDEMREQVLRGGYDSYRPAGYGTEDQPEVYEPFWFRTFRYVRLEVHAGHEPLRITGINYRETGYPLQLQGSFHCSDERYNRLWELSVRTLSRCMHETYEDTPYYEQLQYTMDTRLMMEFTYLLSGDDRLARRAMEDYRASQLPNGMLQSRYPSVLPQVIPSFSLYWIGMIHDHYRVFRDLTLVKHYRTAMLSVLDWFDQRLTPEGLVDRTPRQYWNYYDWVEEWPLGAPDCTNEAPATLMSLMYAFALGQAAELLEASGWTQIAAELRQRKAAVNAAVLDNCRQADGPLFRDSPEAGPEVQLSQHTQVWAVLAGTVSAAEGEALLQTVLTDTSMAKLSLPMSYYLFRALELSGMYDRSYGLWTRWMKQLELGLTTLPEIDSADTRSDCHAWSALPITEFTRGILGVRQDIDGIILQPHCGDLQYASGAVSTEQGLITVSWEITTEEGVEVFRLEAVWTPGSAITVILPNGEVQKSDTGRIEIDIRGFNC | 2.854 | 0.19 | 5.089 | 3.124 |
| 1024 (protein, Bacteroides thetaiotaomicron) MKRTLLLTFLLLSVSALCFSQKLVEVAKGYSCTSVNTTIFRNNSLVTHGDEQYISYYDADGYLVLGKRKLNSKQWTLHRTQYRGNVKDAHNIISIMVDGEGYLHVSFDHHGHKLNYCRSIAPGSLELGDKMPMTGVDEGNVTYPEFYPLTDGDLLFVYRSGSSGRGNLVMNRYSLKDHKWARVQDVLIDGEDKRNAYWQLYVDEKGTIHLSWVWRETWQVETNHDLCYARSFDNGVTWYKSDGEQYKLPITASNAEYACRIPQNSELINQTSMSADAGGNPYIATYWRSSDSEVPQYRIVWNDGKTWHNRQVTDRKTPFTLKGGGTKMIPVARPRIVVEDGEIFYIFRDEERGSRVSMAHTADVANGKWIVTDLTDFSVDAWEPSHDTELWKKQRKLNLFVQHTCQGDGERTAEIEPQMIYVLEANTNTKK | 2.806 | 0.17 | 5.145 | 2.924 |

From patent US20240026407A1, “MODIFICATION OF SAPONINS” (GLAXOSMITHKLINE BIOLOGICALS SA, priority 2020, published 2024)
